Results as given in paper PMC3517971.

How the values were obtained:
[1] = target: SpoIIE(590–827), PP2C phosphatase domain of SpoIIE from Bacillus subtilis (B. subtilis) (UniProt P37475); assay: crystal structure; crystals from 0.9–1.2 M sodium acetate, 0.1 M Hepes pH 7.5; protein pre-incubated with 1–2 mM MnCl2 for 30 min; space group P6_(1)22; 2.76 Å (PDB 3T9Q)
[2] = target: SpoIIE(590–827), PP2C phosphatase domain of SpoIIE from Bacillus subtilis (B. subtilis) (UniProt P37475); assay: crystal structure; crystals from 14–15% polyethylene glycol 400, 0.1 M Tris–HCl (pH 8.5), 0.2 M sodium citrate, 0–50 mM MnCl2; space group P6_(1)22, two molecules in the asymmetric unit; 2.6 Å (PDB 3T91)

Work on “SpoIIE(590–827), PP2C phosphatase domain of SpoIIE from Bacillus subtilis (from UniProt P37475 590-827) (domain or fragment)” yielded a stoichiometry N [1] of 2 and a stoichiometry N [2] of 2.
